Assay: yeast display, Sf9 membrane polyspecificity reagent, FACS + sequencing; frameworks hold sequencing errors
Summary of the method: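 Galactose induction of a Saccharomyces cerevisiae BJ5465 synthetic nanobody display library ran 36–48 hours. The cells were then stained for 1 hour at 4 °C with 10% biotinylated, detergent-solubilized Sf9 membrane reagent, pulled down on streptavidin microbeads and FACS-sorted into low and high (top ~1%) gates on expression and reagent-binding fluorescence. Labels for polyreactivity follow the gate of origin.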

Sequence	polyreactivity (PSR sort gate)
QVQLVESGGGLVQAGGSLRLSCAASGSTFWFNAMGWYRQAPGKEREFVAAITWRGGSTYYSDSVKGRFTISRDNAKNTVYLQMNSLKPEDTAVYYCAAVTAYYYRRTYEYWGQGTQVTVSS	high polyreactivity
QVQLVESGGGLVQAGGSLRLSCAASGSTFWFYAMGWYRPAPGKERELVAVISNSGSTYYADSVKGRFTISRDNAKNTVYLQMNSLQPEDTAVYYCNKDGGGDSYWYDYWGQGTQVTVSS	low polyreactivity
QVQLVESGGGLVQAGGSLRLSCAASGSTFWFYAMGWYRQAPGKERELVAAISRSSGSTYYADSVKGRFTISRDNAKNTVYLQMNSLKPEDTAVYYCAKGWSSVPTQYDYWGQGTQVTVSS	low polyreactivity
QVQLVESGGGLVQAGGSLRLSCAASGSTFWFYAMGWYRQAPGKERELVAAITSSGSSTYYADSVKGRFTISRDNAKNTVYLQMNCLKPEDTAVYYCAADDSNDSPSLYYVAYNYWGQGTQVTVSS	low polyreactivity
QVQLVESGGGLVQAGGSLRLSCAASGSTFWFYAMGWYRQAPGKERELVAVISNSGSTYYADSVKGRFTISRDNAKNTVYLQMNSLKPEDTAVYYCNKDGGGDSYWYDYWGQGTLVTVSS	low polyreactivity
QVQLVESGGGLVQAGGSLRLSCAASGSTFWFYAMGWYRQAPGKERELVAVISNSGSTYYADSVKGRFTISRDNAKNTVYLQMNSLKPEDTAVYYSNKDGGGDSYWYDYWGQGTQVTVSS	low polyreactivity
QVQLVESGGGLVQAGGSLRLSCAASGSTFWFYAMRWYRQAPGKERELVAAITRSAGSTYYADSVKGRFTISRDNAKNTVYLQMNSLKPEDTAVYYCAAQRESLYGGFDYWGQGTQVTVSS	low polyreactivity
QVQLVESGGGLVQAGGSLRLSCAASGSTFWGNAMGWYRQAPGKERELVAAISSRGGSTYYADSVKGRFTISRDNAKNTVYLQMNSLKPEDTAVYYCNTLQSSHGSSQYDSWGQGTQVTVSS	low polyreactivity
QVQLVESGGGLVQAGGSLRLSCAASGSTFWHYVMGWYRQAPGKERELVAAISNGGRTNYADSVKGRFTISRDNAKNTVYLHMKSMKPEVTAVYYCAARRRVSYHLYGYWGQGTQVTVSS	high polyreactivity
QVQLVESGGGLVQAGGSLRLSCAASGSTFWIYAMGWYRQAPGKERELFAAITLRSGSTYYADSVKGRFTISRDNSKNTVYLQMNSLKPEDTAVYYCATDSWGFDSPNYNYWGQCTQVTVSS	low polyreactivity
QVQLVESGGGLVQAGGSLRLSCAASGSTFWIYAMGWYRQAPGKERELVAAITLRSGSTYYADSVKGRFTISRDNAKNTVYLQMNSLKPEDTSVYYCATDSWGVDRPNYNYWGQGTQVTVSS	low polyreactivity
QVQLVESGGGLVQAGGSLRLSCAASGSTFWPYAMGWYRQAPGKERELVATIRWSGGSTSYADSVKGRFTISRDNAKNTVYVQMNSLKPEDTAVYYCAARDFHYYRFKTYGYWGQGTQVTVSS	high polyreactivity
QVQLVESGGGLVQAGGSLRLSCAASGSTFWQNAMGWYRPAPGKERELVAAIRSRGDRTYYADSVKGRFTISRDNAKNTVYLQMNSLKPEDTAVYYCAAYAGYSDQARYYYWGQGTLVTVSS	high polyreactivity
QVQLVESGGGLVQAGGSLRLSCAASGSTFWRYAMGWYRQAPGKERELVAGITWNGGSTYYADSVKGRFTISRDNAKNTVYLQMNCLIPEDTAVYYCAARRSWGYIYRLGYGMDYWGQGTQVTVSS	high polyreactivity
QVQLVESGGGLVQAGGSLRLSCAASGSTFWSNAMGWYRHAPGKERELVAVISRRCVRKYYADSVKGRFTISRDNAKNNVYLQMNSLKPEDTAVFYCNAEVYGELDYWGQGTQVNVSS	low polyreactivity
QVQLVESGGGLVQAGGSLRLSCAASGSTFWSNAMGWYRQAPGKERELVATINSGDGTNYADSVKGRFTISRDNAKNTVYLQMNSLKPEDTAVYYCAAEKYYPWGWYTYDYWGQGTQVTVSS	high polyreactivity
QVQLVESGGGLVQAGGSLRLSCAASGSTFWSYAMGWYRPAPGKERELVAAITSGGRTYYADSVKGRFTISRDNAKNTVYLQMNSLKPEDTAVYYCNAVVRHTYRRFDYWGQGTQVTVSS	high polyreactivity
QVQLVESGGGLVQAGGSLRLSCAASGSTFWSYAMGWYRQAPGKERELVAAITSGGRTYYADSVKGRFTISRDNAKNTVYLQMNSLKPEDTAVYYCNAVVRHTYRRFDYWGQGTQVTVSS	high polyreactivity
QVQLVESGGGLVQAGGSLRLSCAASGSTFWTNAMGWYRQAPGKERQLVAASTEDGGSTYYADSVKGRFTISRDNAKNTVYLQMNSLKREVTAVYYCATVIGYLDDYLFPYPVPYYYWGQGTQVTVSS	low polyreactivity
QVQLVESGGGLVQAGGSLRLSCAASGSTFWWYAMGWYRQAPGKERELVAAISIGGATKYADSVKGRFTISRDNAKNTFYLQMNILKPEDTAVYYCAAVVSYHYVPYGYWGQCTQVTVSS	low polyreactivity
QVQLVESGGGLVQAGGSLRLSCAASGSTFWWYAMGWYRQAPGKERELVATIRDGGSTNYADSVKGRFTISRDNAKNTVYLQMNSLKPEDTAVYYCNADVYPYYRKPWMDYWGQGTQVTVSS	low polyreactivity
QVQLVESGGGLVQAGGSLRLSCAASGSTFWYNAMGWYRQAPGKERELVAAITTRGDSTYYADSVKGRFTISRDNAKNTVYLQMNSLKPEDTAVYYCAADWAWYSYDWYYWYDYWGQGTQVTVSS	high polyreactivity

Sequence	polyreactivity (PSR sort gate)
QVQLVESGGGLVQAGGSLRLSCAASGSTFWYYAMGWYRQAPGKERELDADITYSGVSTYYADSVKGRFTISRDNAKNTVYLQMNSLKPEDTAVYYCYADWGSVNGYAGYYYWGQGTQVTVSS	low polyreactivity
QVQLVESGGGLVQAGGSLRLSCAASGSTFWYYAMGWYRQAPGKERELVAAITRDGTTYYADSVKGRFTISRDNAKNTVYLQMNSLKPEDTAVYYCAVDIDNWSEYDYWGQGTQVTVSS	low polyreactivity
QVQLVESGGGLVQAGGSLRLSCAASGSTFWYYAMGWYRQAPGKERELVAAITTGGDTTNYADSVKGRFTISRDNAKNTVYLQMNSLKPEDTAVYYCARDTGYDLIVLPDDSWGQGTQVTVSS	low polyreactivity
QVQLVESGGGLVQAGGSLRLSCAASGSTFWYYGMGWYRQAPGKERELVARINWSTGRTYYADSVKGRFTISRDNAKNTVYLQMNSLKPEDTAVYYCNALNPYKGQEAHYDYWGQGTQVTVSS	high polyreactivity
QVQLVESGGGLVQAGGSLRLSCAASGSTFWYYTMGWYRQAPGKERELVATISWRGGRTTYADSVKGRFTISRDNAKNTVYLQMNSLKPEDTAVYYCNAERFPGYGGPSRYLYQEYVYWGQGTQVTVSS	low polyreactivity
QVQLVESGGGLVQAGGSLRLSCAASGSTFYANAMGWYRQAPGKERELVAAIDSGGTTTYADSVKGRFTISRDNAKNTVYLQMNSLKPEDTAVYYCAADQYWYFWYDYWGQGTQVTVSS	low polyreactivity
QVQLVESGGGLVQAGGSLRLSCAASGSTFYANAMGWYRQAPGKERELVAAITRSGAGTYYADSVKGRFTISRDNAKNTVYLQMNSLKPEDTAVYYCNAGSSFWVSRIGYDYWGQGTQVTVSS	high polyreactivity
QVQLVESGGGLVQAGGSLRLSCAASGSTFYANTMGWYRQAPGKERELVAAISRRGGRTYYADSVKGRFTISRDNAKNTVYLQMNSLKPDDTAVYYCARRGYSSRTIKRYNYWGQGTQVTVSS	high polyreactivity
QVQLVESGGGLVQAGGSLRLSCAASGSTFYAYTMGWYRKAPGKERELVAGISRRGGTTYYADSVKGRFTISRDNAKNTVYLQMNSLKPEYTAVYYCAADKTKPQASEGYYAYYYWGQGTQVTVSS	low polyreactivity
QVQLVESGGGLVQAGGSLRLSCAASGSTFYAYTMGWYRQAPGKERELVADISRSGGSTYYADSVKGRFTISRDNAKNTVYLQMNSLKPEDTAVYYCAAASSYYRGHYDYWVQGTQVTVSS	high polyreactivity
QVQLVESGGGLVQAGGSLRLSCAASGSTFYDNAMGWYRQAPGKERELVARITWNGGRTYYADSVKGRFTISRDNAKNTVYLQMNSLKPEDTAVYYCNAVYWGYGKYDYWGQGTQVTVSS	high polyreactivity
QVQLVESGGGLVQAGGSLRLSCAASGSTFYDNTMGWYRQPPGKERELVAVITTDGDRTYYADSVKGRFTISRDNAKNTVYLQMKSLKPEDTAVYYCNARRAYWVVYPGDDYWGQGTQVSVSS	low polyreactivity
QVQLVESGGGLVQAGGSLRLSCAASGSTFYDYAMGWYRQAPGKERELVAAISQSGGSTYYADSVKGRFTISRDNAKNTVYLQMNSLKPEDTAVYYCAADSGYSLYDYWGQGTQVTVSS	low polyreactivity
QVQLVESGGGLVQAGGSLRLSCAASGSTFYDYAMGWYRQAPGKERELVAAISRSGGSTYYADSVKGRFTISRDNAKNTVYLQRNSLKPEDTAVYYCAASRATLLRYGYWGQGTQVTVSS	low polyreactivity
QVQLVESGGGLVQAGGSLRLSCAASGSTFYFNTMGWYRQAPGKERELVAAINSIGGSTYYADSVKGRFTISRDNAKNTVYLQMNSLKPEDTAVYYCAKLKRLYYWSSHTSYGYDYWGQGTQVTVSS	high polyreactivity
QVQLVESGGGLVQAGGSLRLSCAASGSTFYFYAMGWYRQAPGKERELVASITVRGGRTYCADSVKGRFTISRDNAKNTVYLQMNSLKPEDTAVYYCAENWSYRAYDYWGQGTQVTVSS	low polyreactivity
QVQLVESGGGLVQAGGSLRLSCAASGSTFYGNAMGWYRQAPGKERELVAAITGDGGSTYYADSVKGRFTISRDNAKNTVYLQMNSLKPEDTAVYYCAVDVIVLGQWPGQLDEFDYWGQGTQVTVSS	low polyreactivity
QVQLVESGGGLVQAGGSLRLSCAASGSTFYGNAMGWYRQAPGKERELVAAITWGDASTYYADSVKGRFTISRDNAKNTVYLQMNSLKPEDTAVYYCAADFYYAYYWGQGTQVTVSS	low polyreactivity
QVQLVESGGGLVQAGGSLRLSCAASGSTFYGYAMGWYRPAPGKERELVAAITIGGRTYYADSVKGRFTISRDNAKNTVYLQMNSLKPEDTAVYYCAAAILRTVPELGSRRTYYYWGQGTQVTVSS	high polyreactivity
QVQLVESGGGLVQAGGSLRLSCAASGSTFYGYAMGWYRQAPGKERELVAAISSNGDSTYYADSVKGRFTISRDNAKNSVYLQMNILKPEDTAVYYCATDPEGSTGGGYEFWGQGTQVTVSS	low polyreactivity
QVQLVESGGGLVQAGGSLRLSCAASGSTFYGYAMGWYRQAPGKERELVAVINYSGGTTSYADSVKGRFTISRDNAKNTVYLQMNSLKPEDTAVYYCAARRRWAILRYRGNYDYWGQGTQVTVSS	high polyreactivity

Reference: the nanobody polyreactivity screen of Harvey et al. (2022)
